PMC4791140 (Molecular Biology of the Cell, 2016)

Biological target: T1, MBP-tagged WHAMM membrane-interaction domain (WMD) (human, UniProt Q8TF30 1-260)
T1 sequence (looked up): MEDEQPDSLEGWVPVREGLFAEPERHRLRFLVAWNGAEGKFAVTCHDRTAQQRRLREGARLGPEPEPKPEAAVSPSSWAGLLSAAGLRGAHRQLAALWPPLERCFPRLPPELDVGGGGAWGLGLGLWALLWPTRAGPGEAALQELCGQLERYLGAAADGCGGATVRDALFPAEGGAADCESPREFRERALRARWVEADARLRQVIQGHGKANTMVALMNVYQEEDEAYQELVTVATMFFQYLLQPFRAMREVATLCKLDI
Experiment: pull-down

binding result: binds
B1: GST-Rab1a, membrane-extracted prenylated form (Rab1(M)) (natural protein)
chain: not shown
modifications: prenylated (residues not stated)
